Experiments:
[1] = target: glycophorin A on red blood cells (human (endogenous in red blood cells)) (UniProt P02724)
[2] = target: glycophorin A on red blood cells (human (endogenous in red blood cells)) (UniProt P02724); remark: listed apart in the source

recombinant soluble region II (RII) of EBA-175 (domain or fragment)
mean cluster area of RBCs under flow (1 dyn/cm^2), RII 1, 10 and 100 nM [1]: 1140 µm^2 | lowest concentration of RII at which RBC clustering was seen (confocal live imaging, picomolar and low nanomolar RII) [2]: 0.3 nM

From article PMC6305201
